Patent US8809529B2, “Imidazo[1,2-α]pyrazine derivatives” (Promega Corporation, priority 2010, dated 2014)
Like-named read-outs stand apart in the source and are kept apart here.

Assays:
[1] = Luminescence screen of OgLuc variants in lysed E. coli cells; type: biochemical; settings: QC27-9a versus C1+A4E
Description: Resulting libraries were expressed in E. coli and primarily screened with a robotic system for OgLuc variants having increased light output (i.e., increased luminescence, increased brightness, or increased light emission) or a change in relative specificity compared to the corresponding starting OgLuc variant. The robotic primary screen was conducted as follows: individual colonies from the generated library were used to inoculate minimal media in 96-well plates and grown at 37° C. for 17 to 20 hrs (“M1 culture”). The M1 culture was diluted 1:20 with fresh minimal media and grown at 37° C. for 17-20 hrs (“M2 culture”). […] The use of the different induction media was determined based on the luminescence generated between C1+A4E and the novel coelenterazines, i.e., the induction media containing rhamnose and glucose were used with novel coelenterazines that generated less luminescence with C1+A4E compared to the other novel coelenterazines with C1+A4E.
Luminescence measurements for each variant were taken 3 min after reagent addition and relative luminescence unit (RLU) values were normalized to an average of 8 control wells of the corresponding starting OgLuc variant for each plate. […]

HEK293 cells [2] = experiment: Toxicity of coelenterazines in HEK293 cells (CELLTITER-GLO); settings: 24 hrs after compound addition
HEK293 cells [3] = settings: human, 24 h
OgLuc variant 9B8 opt = molecular target: T1, OgLuc variant 9B8 opt (Oplophorus gracilirostris, UniProt Q9GV45, A31E/A60K/A81I/F95Y/I117V/L99Q/M102K/N193R/P142E/Q151K/Q38R/Q45L/V71I/Y165I); experiment: Multiplex assay with red click beetle luciferase and 9B8 opt (modified DUAL-GLO); type: biochemical
T1 construct: made in house; host or cells: E. coli (crude lysate)
Description: A. Lysates of E. coli expressing the variant 9B8 opt were prepared as previously described in Example 27 and diluted 1000-fold in DMEM without phenol red+0.1% PRIONEX®. Luminescence from a sample containing 6.3 μg/mL of purified red click beetle luciferase and E. coli lysate expressing the variant 9B8 opt was detected using a modified DUAL-GLO® Luciferase Assay System (Promega Corp.). DUAL-GLO® STOP&GLO® Reagent containing 20 μM coelenterazine-h and DUAL-GLO® STOP&GLO® Reagent containing 20 μM PBI 3939 were used, according to the manufacturer's protocol, to detect the red click beetle luciferase and OgLuc variant 9B8 luciferase from a single sample. Three replicates were performed.
Luminescence was detected on a Turner MODULUS™ luminometer. […] The standard deviation (“+/−”) and coefficient of variance (“CV”) are also shown. A “no coelenterazine” control was performed to illustrate the amount of quenching of the red click beetle signal by the DUAL-GLO® STOP&GLO® Reagent of the DUAL-GLO® Luciferase Assay System in the absence of coelenterazine. The “no coelenterazine” control yielded a 349-fold quench.

[4] = Stability of coelenterazines in reporter reagent buffer (T90); settings: time for luminescent signal to decay by 10% at 22° C.; read with OgLuc variant IV lysate
[5] = system: antioxidant response element (ARE); experiment: ARE transcriptional reporter, reverse transfection, HEK293 cells; type: cell-based, human; settings: 24 h, 100 ng DNA
[6] = system: cAMP response element (CRE); experiment: CRE transcriptional reporter, forward transfection, HEK293 cells; type: cell-based, human; design: Response: scale not given here; settings: for baseline: 10 nM FSK; for baseline / RLU (10 μM FSK): 3 h
Description: HEK293 cells were plated at 15,000 cells/well in six 96-well tissue culture plates. Cells were grown in 100 μL of DMEM+10% FBS+1× non-essential amino acids (NEAA) and incubated overnight at 37° C. The cells were transiently transfected with either 10 ng or 100 ng plasmid DNA/well of pGL4.29 9B8 opt, pGL4.29 9B8 opt-P, or pGL4.29. Plasmid DNA was mixed with 850 μL of OPTI-MEM® (Invitrogen) and 32.4 μL of FUGENE® HD transfection reagent (Promega Corp.) and incubated at room temperature for 10 min. Eight μL of the transfection/reporter DNA mixture was added to the appropriate wells (2 constructs/plate). Cells were incubated for 4 hrs at 37° C. The medium was replaced with OPTI-MEM®+0.5% dialyzed FBS+1×NEAA+1× sodium pyruvate+1× Penn-Strep and incubated overnight at 37° C.
A lytic reagent containing 100 mM MES pH 6.1, 1 mM CDTA, 150 mM KCl, 35 mM thiourea, 2 mM DTT, 0.25% TERGITOL® NP-9 (v/v), 0.025% MAZU® DF 204, and 20 μM PBI-3939 was added to the cells containing pGL4.29 9B8 opt or pGL4.29 9B8 opt-P and allowed to incubated for 10 min at room temperature (100 μL lytic reagent added to 100 μL cells). ONE-GLO™ assay reagent (Promega Corp.) was added to cells containing pGL4.29 and used according to the manufacturer's protocol (100 μL reagent added to 100 μL cells). Luminescence was measured on a GLOMAX® Luminometer.

[7] = system: heat shock response element (HRE); experiment: HRE transcriptional reporter, bulk transfection, HeLa cells; type: cell-based
Description: (§1) The transcriptional reporter containing […] and 9B8 opt-P was used in the bulk transfection of HeLa cells
(§2) HEK293, NIH3T3, or HeLa cells were plated to a single well of a 6-well tissue culture plate the day before transfection at a density of 4.5×10^5 cells/well in 3 mL complete medium (DMEM+10% FBS+1×NEAA+1× sodium pyruvate) for HEK293 cells, 3×10^5 cellsNvell in 3 mL complete medium (DMEM+10% fetal calf serum (FCS)+1×NEAA+1× sodium pyruvate) for NIH3T3 cells, or 9.9×10^5 cells/well in 3 mL complete medium (DMEM+10% FBS+1×NEAA) for HeLa cells. Cells were grown overnight at 37° C.
(§3) 3,300 ng of reporter plasmid DNA in 155 4 OPTI-MEM® was mixed with 9.9 μL FUGENE® HD transfection reagent, vortexed briefly, and incubated at room temperature for 10 min. The CRE transcriptional reporters were used to transfect HEK293 and NIH3T3 cells. The HRE transcriptional reporters were used to transfect HeLa cells. The reporter mixture was added to cells and mixed by gentle rocking followed by incubation at 37° C. for 6 hrs (HEK293 and NIH3T3) or 3 hrs (HeLa). Cells were then trypsinized and resuspended in medium (DMEM+10% FBS+1×NEAA+1× sodium pyruvate for HEK293 cells, DMEM+10% FCS+1×NEAA+1× sodium pyruvate for NIH3T3 cells, or DMEM+10% FBS+1×NEAA for HeLa cells), followed by plating to the individual wells of a 96-well plate (20,000 cells/100 μL for HEK293, 10,000 cells/100 4 for NIH3T3, or […] for HeLa) and incubated at 37° C. overnight.
(§4) FSK (CRE stimulator) or 17-AAG (HRE stimulator; 17-Allylamino-demethoxy geldanamycin) in OPTI-MEM® was added to the cells (10 nM or 10 μM final concentration for FSK; 1 nM or 1 μM final concentration for 17-AAG) and incubated at 37° C. for 4 hrs (FSK) or 6 hrs (17-AAG). Plates were removed from the incubator and allowed to equilibrate to room temperature for 25 min. Cells were lysed with 100 μL lytic reagent as described above for the forward transfection. Luminescence was measured on a GLOMAX® Luminometer.

CRE [8] = experiment: CRE transcriptional reporter, bulk transfection, HEK293 cells; type: cell-based, human
Description: as §1, §2, §3, §4

CRE [9] = experiment: CRE transcriptional reporter, bulk transfection, NIH3T3 cells; type: cell-based
Description: as §1, §2, §3, §4

[10] = system: antioxidant response element (ARE); experiment: ARE transcriptional reporter, reverse transfection, HEK293 cells; type: cell-based, human; settings: for baseline: 24 h, 100 ng DNA
Description: HEK293 cells were trypsinized (T75 flask, 3 mL trypsin) and resuspended in […] (approximately 8.9×10^6 total cells) in medium containing DMEM+10% FBS+1×NEAA. Each transcriptional reporter was prepared for transfection by mixing 1.2 mL OPTI-MEM®, 12 μL transcription reporter DNA (100 ng) and 36 μL FUGENE® HD transfection reagent together and incubated at room temperature for 35 min. Following incubation, 624 μL of the transfection/reporter DNA mixture was added to 12 mL of cell suspension and mixed by inversion. After mixing, 100 μL of the cell/DNA mixture was added to wells of a 96-well plate (2 constructs/plate). The cells were incubated at 37° C. for 22 hrs. Tert-butylhydroquinone (a Nrf2 stabilizer; tBHQ; 1 μM (“baseline”) or 20 μM) or sulphoraphane, (an organosulfer antioxidant known to activate Nrf2; 1 μM (“baseline”) or 20 μM) in OPTI-MEM® was added to each well and incubated at 37° C. for 24 hrs. Cells were lysed with 100 μL lytic reagent as described above for the forward transfection. Luminescence was measured on a GLOMAX® Luminometer.

CC(C)c1[nH]c(-c2ccccc2)cn2c(=O)c(Cc3ccc(O)cc3)nc1-2 [PBI-3841]
Change in relative specificity (novel coelenterazine/native coelenterazine) [1]: 350,000X
Viability (normalized to vehicle (DMSO) control) (%) (HEK293 cells [2]): 100%

O=c1c(Cc2ccc(O)cc2)nc2c(C3CC3)[nH]c(-c3ccccc3)cn1-2 [PBI-3897, 8-cyclopropyl-2-(4-hydroxybenzyl)-6-phenylimidazo[1,2-a]pyrazin-3(7H)-one]
Change in relative specificity (novel coelenterazine/native coelenterazine) [1]: 80,000X
Viability (normalized to vehicle (DMSO) control) (%) (HEK293 cells [3]): 100%

coelenterazine-h [Coelenterazine h, reference compound]
Ogluc (average luminescence generated by 9B8 opt) (OgLuc variant 9B8 opt; 20 μM substrate in DUAL-GLO STOP&GLO Reagent): 921,440
+/− coel (OgLuc variant 9B8 opt; Ogluc signal relative to no coelenterazine control): 64
Stability (pH 8) (T90 in hrs) [4]: 2.1 hrs
Viability (normalized to vehicle (DMSO) control) (%) (HEK293 cells [2]): 100%

B1: 9B8 opt-P: 9B8 opt further comprising the PEST protein degradation sequence (protein)
chain: MVFTLEDFVGDWRQTAGYNLDQVLEQGGLSSLFQKLGVSVTPIQKIVLSGENGLKIDIHVIIPYEGLSGYQMGQIEKIFKVVYPVDDHHFKVILHYGTLVIDGVTPNMIDYFGRPYEGIAVFDGKKITVTGTLWNGNKIIDERLINPDGSLLFRVTINGVTGWRLCERILANSHGFPPEVEEQAAGTLPMSCAQESGMDRHPAACASARINV
RLU (20 μM sulphoraphane) [5]: 3,940,000 RLU
RLU (20 μM tBHQ) [5]: 8,460,000 RLU
Response ([6]; 10 ng DNA for transfection): 121
baseline ([6]; 10 ng DNA for transfection): 11179
RLU (10 μM FSK) ([6]; 10 ng DNA for transfection): 1,353,459 RLU
Response ([6]; 100 ng DNA for transfection): 168
baseline ([6]; 100 ng DNA for transfection): 122,071
RLU (10 μM FSK) ([6]; 100 ng DNA for transfection): 20,544,753 RLU
Response ([7]; 17-AAG): 12
RLU (1 mM 17-AAG) ([7]; 6 h): 3,204,000 RLU
baseline ([7]; 6 h): 278,118
baseline (CRE [8]; HEK293, 10 nM FSK, 4 h): 3,960,000
RLU (10 mM FSK) (CRE [8]; HEK293, 4 h): 460,000,000 RLU
Response (CRE [8]; HEK293, FSK): 116
baseline (CRE [9]; NIH3T3, 10 nM FSK, 4 h): 410,461
RLU (10 mM FSK) (CRE [9]; NIH3T3, 4 h): 3,720,000 RLU
Response (CRE [9]; NIH3T3, FSK): 9
baseline ([10]; 1 μM sulphoraphane): 258,406
baseline ([10]; 1 μM tBHQ): 317,238
Response ([10]; sulphoraphane): 15
Response ([10]; tBHQ): 27
